Test results taken from patent US20140056890A1 (ONCEMED PHARMACEUTICALS, published 2014).

Target: T1, pYAP (human, UniProt P46937, phosphorylated; site not stated in Example 13 (detected with phospho-YAP1 antibody #4911, Cell Signaling Technology; the anti-pYAP antibody of Examples 5 and 7 is to Ser127))
T1 construct: full length, endogenous; also called phospho-YAP; phospho-YAP1
Experiment: co-immunoprecipitation: anti-FLAG IP from lysate of transiently transfected HEK-293T cells, Western blot with anti-phospho-YAP1
Description: To validate these protein complexes, immunoprecipitates (see method described above) were prepared from HEK-293T cells transiently transfected with FLAG-tagged full-length CADM1, CADM3, PVR, PVRL1, and PVRL3, with CADM3-CD4TM-GFP and LGR5-CD4TM-GFP constructs as internal negative controls. Total cell lysates and the immunoprecipitate eluates were run on 4-12% Tris-Glycine Midi Gels (Life Technologies/Invitrogen, Grand Island, N.Y.) and transferred by iBlot onto PVDF membranes (Life Technologies/Invitrogen).

T1 sequence (P46937 whole entry): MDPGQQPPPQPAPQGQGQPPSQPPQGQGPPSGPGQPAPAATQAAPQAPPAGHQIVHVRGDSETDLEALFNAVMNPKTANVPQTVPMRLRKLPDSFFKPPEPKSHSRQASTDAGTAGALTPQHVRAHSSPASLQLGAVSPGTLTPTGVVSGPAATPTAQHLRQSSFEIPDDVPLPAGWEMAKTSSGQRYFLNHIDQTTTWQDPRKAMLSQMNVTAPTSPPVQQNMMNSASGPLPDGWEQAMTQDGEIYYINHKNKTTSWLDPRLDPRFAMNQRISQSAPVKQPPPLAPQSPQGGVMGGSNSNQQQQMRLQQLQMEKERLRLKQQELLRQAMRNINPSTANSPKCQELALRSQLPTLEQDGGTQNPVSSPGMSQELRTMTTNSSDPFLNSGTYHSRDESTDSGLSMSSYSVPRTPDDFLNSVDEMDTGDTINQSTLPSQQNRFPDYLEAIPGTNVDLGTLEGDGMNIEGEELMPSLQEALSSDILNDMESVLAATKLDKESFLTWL

B1: FLAG-tagged full-length PVR (receptor)
chain: WPPPGTGDVVVQAPTQVPGFLGDSVTLPCYLQVPNMEVTHVSQLTWARHGESGSMAVFHQTQGPSYSESKRLEFVAARLGAELRNASLRMFGLRVEDEGNYTCLFVTFPQGSRSVDIWLRVLAKPQNTAEVQKVQLTGEPVPMARCVSTGGRPPAQITWHSDLGGMPNTSQVPGFLSGTVTVTSLWILVPSSQVDGKNVTCKVEHESFEKPQLLTVNLTVYYPPEVSISGYDNNWYLGQNEATLTCDARSNPEPTGYNWSTTMGPLPPFAVAQGAQLLIRPVDKPINTTLICNVTNALGARQAELTVQVKEGPPSEHSGMSRNAIIFLVLGILVFLILLGIGIYFYWSKCSREVLWHCHLCPSSTEHASASANGHVSYSAVSRENSSSQDPQTEGTR
notes: Bait, transiently expressed in HEK-293T cells and immunoprecipitated from lysates with anti-FLAG agarose; also called Poliovirus receptor; NECL-5
- binding result: no binding
